Experiment: protease stability score; higher = more stable; yeast display proteolysis, trypsin and chymotrypsin;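 also: relative to predicted unfolded state with 0 unfolded-like and 1 meaning tenfold more protease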
“DEKDEHMENLMREFMHSTLTGDEELLERMADPHVKVIVNGKELIGRESWRKWLEELEKRFKHAKFIWLLHRVDVQGEKANSDGVRRINFDGVNINLKTHIFIHVVNGKLKEIEIHDK” showed a protease stability score of 1.33. Work on “DETHVQMERFIEEHIKSHITGDEDYLRENIDPEARVVIDGQTYHGWKAIKDAIDQWRVTDMRIRHVRVQGEKVDIHGRLHVDVNGRNIDLEVRIIVTKVDGRWVVDQLIFN” yielded a protease stability score of 1.16. Work on “SEELEHAERLDRMIAKAYSTGDEDVFRELLDPHVKIHDEDHHSHGMEWIRYHIERFKNVRSSVEVRRYHVQGNKIFSDGVFRLQVGDKDITRRVLFVVLKVDGRWIMESIHIE” yielded a protease stability score of 1.08. Sequence “SHEDHLVDLAFEVWRRDLETGDEDLLKKLVDPNVRIIQGDKMYHGMDDYVERLRRIWEELGVDYIQVHLEHSRQVNGVAELDVRLKLRIGDKRREYRLHLHIEKVNGKWQIKQINIQ” has a protease stability score of 0.277. With “DEKERLAHEFHERFLEALMTGDEHHIEEMFDPNARTRQGDKTFHGRERSLHLISEWWRQIDVVRDIHIHEIKFQGDFLSFHLMIDGEINGRRDELVVHVESRKIDGKWFLHSVTYT” the protease stability score was 0.497. For “DDEDEHWETLARHFVDNYLTGDWKRLWEMLDPNARLNVNGKEYHGREVIIRVLRKELEDLGVDVVDVEDIRVYGNKVDFHMTVRVGDKERRLEIDVHIVDGRIRKIIIRID”, the protease stability score was 2.2. With “SEIQDISDLAFELIWRSLNTGDEHMLLELLDPDARTHVNGKTFHGRESAVHLFRYLLTLMGIDHIHIEDFKIEFQGDKVIIRMTTRSHQGDKEFHTRFLIIVRKVDGRWINEEISIHVE” the protease stability score was 0.937. Sequence “DDQDTNSELAVHLWILSMITGDERFLNEYMDPNAKVHVGDKEYHGREAYEFLRHRVDHIRESHIRRVHTQGNKVRVDVEFRIEVDGREINVRTELVLIKINGQWRFTEFTFK” has a protease stability score of 2.22. Work on “SEEEHVMVEIVRKLTEAKHTGDFKTEHELMDPHARIDINGVEIHGMEEWRHLYEEWRFIVHRTHVRHVHVQGDKVDLKGEFRGVIDYDGREIEYNTKVNLHLHKVDGRWQLHDVKTT” yielded a protease stability score of 0.552. In the case of “DEYREEARKLMHDTAKHLHTGDEDMTNHYLDPNVKIQINGQEIHGMDKFEHDSRRFKGAKNDVRFELRLIQVIGDKVRIDGELYVRIRVGDKEYSFEVKVDIVVTKVDGVWKIKEIKIE”, the protease stability score is reported as 0.806. Sequence “GEHEDYILHIVDLFIHNILTGDWDAILKLMDPDVRFEIEINGRTIEIHGWEQIKRIMDEIKERADHLHIEIRDKFSVNGVAFFEGTIEIRVGDKRHREDVEIILFVVDGRIKIIRKRDV” has a protease stability score of 1.99. Sequence “DDRSEHAIHAFYEWWERFLTGDEKRLYELADPNTRLHVNGQRIHGMEEIMERILDLLKRVKNMRVDFDVRDVELQGDKIILRIEIILKYNGQKVRIDVHIISRKINGRWFLEQEREE” has a protease stability score of 0.558. Sequence “SEDEEAAKRLTDLLIHNWETGNEDELHRLIDPNMREDVNGKEFHGWSYMVHFLRRIDHVFSHITIHDIKSVGDYVYIDGTVDEIFHIGDSKIRINIRVTIIILKINGRWIMTHVHVK” has a protease stability score of 1.32. “DEENKVLEHMIRLIHHDRSTGDEKVLLKLFDPHARFIYHYGDKEIHLHGRKEITDLLVKLHRHIRVDRLHIDHWEFHGDKMHIDHTTRMNVNGREMETRIDLIITIIDGVIHSIEIRQR” gave a protease stability score of 1.19. “DELEEILEELFRRMLEWLRTGDEEAMSKLADPHYKLLWNGREHVGREVILERLEKINQHLRIRHIHIHEIRFIDGRVESDTRVDGEVNGRRTEYTQKVIIFIVNGRFKFLEIQLR” gave a protease stability score of 1.71. In the case of “DEIEEIAREIAKELHHLILTGDEDRLNELMDPNVKFESIVNGRRIESIGRENVKEVLRRLLEKLGLDRFSFIRRDIKYFDGVIHIFGQLEIDGVRHETEIIIFIVNGKVKSIRIRIQ”, the protease stability score is reported as 1.14. Work on “SESEEIAHNFTELLIKTLNTGDEKLYRELADPNARIEINGVELVGWKKANELLQRIDHERVRRVKLKDIEVQGDKVIVRTHEEREINIGDKRLHIRTDVEIIWVKINGKWILHEISVH” yielded a protease stability score of 1.23. “DDLEREAKTMVDRFRELMATGDFEEREHLVDPNTRWHVNGQDFHGRELITEILIKKFEDLGVEKITFRVERIRVVGDKIEVDGVLIIDGREIDTRLNWTKVNGRWIIKFESEK” showed a protease stability score of 0.927. “DEDTENVLRALEQFDEKLLTGDWRSLEELADPHVRIDINGQDIHGRETHSEHFRRIKNLKLEHLDVHSFTVIGNKVELDTEIIGEIDGRRRIFRVRMRILKIDGRWVLHSVEIG” gave a protease stability score of 1.46. “SEEEHWLDDAFRWLIELIFTGDETEIEKMIDPNVKIHIGEKNNHGREIMIEWLERLGVKHVREMRIRHVHRQGNKLIVHGEIHREVDGVKIETESLIVAKKVDGQWHLQSVRVN” gave a protease stability score of 2.37. Sequence “SEEEHWVELLIELLERTQKTGDEHSFERLMDPNVRIIIGDKVMHGREEASRWMHEARVHETRIEHIRIINGRAHIDSRERGEINGREINLRVEIISSKVDGRWVITEVRVE” has a protease stability score of 0.943. Work on “DEEEQAASHLEELIFRVIETGDWRNFYKMMDPDVRLDFNGQEYHGRENVTEAWHNSFHDLGIKHIELRTKNSQGDFLHLNFIVRYNGREFNVHFNWHVIDGRMKLIDIRVEHI” yielded a protease stability score of 0.585. With “SEDKKTLEHYFRELMHVLQTGDETEFVKLLDPDARLIIGDKSDHGREEVSRSLLEFQRILGIDHLEFRHTHLDIQGDKITIILQVRMKVNGREHHSRLIFVAEKVNGRWVLRSVIFEIH” the protease stability score was 2.18. In the case of “SEDEELLKKFFERLLHALRTGDEDHLRTLIDPHARLIQGDKHYIGREQLEHSLHIILSHIRFEHHDSRREEIQGDKAIVHSHLIVRQGDKTYRLDVTFHLEKVNGRWVIREVDLN”, the protease stability score is reported as 1.33. In the case of “NEDEEKAKRFVKTYVHSLVTGDWKLWSEMADPNMILIYGDKTFIGREHFEEFFRRHIEELRFDSFHVDHVEIQGDKAELESRVSVIINGVERELETNMFLHKVDGRWLLTKFEVH”, the protease stability score is reported as 2.08. Sequence “SEIDEFSEKAFRLLLETLQTGDWRLTSELVDPNVRVHFEGHEHVGMEEVSKVVRHWRVKRIELKHLEVIGEKMHMILHQDIEVNGQRVRTDMIVTADKIDGVWLLTEVRIK” has a protease stability score of 1.59. In the case of “DEEDDEAREVHERLVRAFKTGNEELLLKMADPNTRDLFVVDGRTIHLVGWEHWRISLHELRIHDQRIRRSHVIDGRVHSDWEIDVEFNGRRSRKKLEIRIEVVNGVTKSVEFIFR”, the protease stability score is reported as 1.31. With “TEESQIALEVLIKTARNKYTGDEDSVRHMADPNVQLHFDGQEIHGMDIIRKMIKHIRIDIEDSRSRDHHVQGDKIHDQTEVVLLIEYNGVHIRRQVRVHIHIWKINGRWILHSEIFE” the protease stability score was 1.41. Work on “DDEEKYFRMAVHHIIHLLHTGDETDSEHQADPDVRITVGDKRFHGREDFRDWVRELTDRYKNMTFRLKSVDVQGDFIILHGLLHFNGKNVEFDVFSWKFNGKWFMHHIIVR” yielded a protease stability score of 1.72. “SEEEDEIRKMLEEVLKNWRTGNEERIYELADPNTRVEIDGREHHGRHVVAHLIKEWRIHDFILRRVDVQGNKVIIHGELEGEFDGKRTNLHTNLVLVKIDGRWVIESLHYV” gave a protease stability score of 1.41. Sequence “DDWEEVLKDFLKKYFEALHTGNEELFLLMLDPHVKFDWNGQKMVGREKEIETLRREIKSAGVTRIERELEIKDTRLVDGRLRIDLSIHLNFNGRKFEIDVELHLNKINGRWEIESIKYR” has a protease stability score of 1.15. Work on “SEEEQHAKHMSHLISHVLKTGDEERWKELMDPHTRLIVGDKEFHGREALHELKRRVDHMKDVLIHSVEVQGNKADFDVEVHVKVDGRHERLKMRWIVDKVNGRWVQSEIIIH” yielded a protease stability score of 1.65. For “SEEDEEAERMVRALNHKFRTGDWELSEKLFDPNTKLEIIINGKHIDIHGREMVIRLMEDELRRFDHVDIEIKRVDSQGEKANNDGVLVIKQGDFEVRHRFTLIIHVVNGVIKKISILFH”, the protease stability score was 0.996. For “DEEEKEAKHASERINHDFLTGDWKSLEKLADPETRLIVNGRDFHGRERVLHELVRFYHELGVNHFRIRDIRVIGNKIHVDNQIDVGEKHNEMHVISSKVNGRWVLHTVELN”, the protease stability score was 1.23. “SEETKNLEHWAKRFEHALETGDEEVLTKLFDPNVRLHFNGVNIHGWELYRKYHQRVDHVHFRIRSVHVYDGRVDMHTEVENRQGDKSHRMDTRLFAIKVNGVWLIESFEVH” gave a protease stability score of 0.486. In the case of “TDEDEAAELIIRLLEELHHTGDEDKLRDLMDPHVRMDIDGKDFHGRETYLEHLHHRLVNWGVDRIKVEIRLKHSEIQGEKLILETDWIVIFDGVRYEMKVRLILIKVNGRWVLKSSHFK”, the protease stability score is reported as 1.32. For “SEEHEQLLRMAQIWIKNWLTGDEKSMIELADPRVLFIYGDKIHHGWEEMSKFLHRLMEEIRIEDLRIDSFRAYNGRVEHDTTIDVEIGDKRINLKHHFHLDVVDGRIRHVKVKID”, the protease stability score was 0.726. “DEHEEEVLRIARDFLEALRTGDEEHMTELMDPHVRLEVDGRDLHGREEVLRLLVEQWERIKNVTWEVERLEIVNGRLIIQLRVHVNGQNHDVRLYINVVDGVVKSIRHEKH” gave a protease stability score of 1.47. For “DEEKDLTEKIAHEIVHNYMTGDFDRFIELADPNVRFIIGDKIYHGREQLLTVLEHWRQEWRLSHVRLDEFEIQGDKVILHTTMNIKYGDKRIDVETEIKIIIINGRIRDWTIDRR”, the protease stability score was 1.42. For “DEDEENFERLVHLTLHYLLTGDFEDFNHLADPHVKLNVNGQQHVGREKWSELLHLFGINHMQIEERDLRVIGDKVRLDVRGTSQVGDKEHEVHIHIHAQKVNGRWTVTEMQINTE”, the protease stability score was 2.1. In the case of “HEEHEEAWHEIELTYHLLNTGDFDEMNRLLDPNVRIHIGDKRYHGRHELDLLITKLGVKHVRWEVKHADIQGDKVDMDTIVHITQGDKEIRRDTRIKIRKIDGKWFVTELHVT”, the protease stability score is reported as 1.28. With “SEEEDDLQHYIDVLRHILHTGDWQKFSEMADPTVKLKINGVEYHGREKLAHMLKKHLEELGYTRIEVELRSITIQGEFIKSDIKLDVNGQELRVRVDFYKINGKWSMTFLQIE” the protease stability score was 1.45. Work on “SEETKEKHDFVEEWRHFLETGDEHELTRMIDPNVRVIINGQEHHGREAFEEMLKRIDVIHHVVIRKERSINGVIRLNFEVDGVINGRRHRTEFHIIVLKINGRWLIHQISIH” yielded a protease stability score of 2.04. “DEDHEQAKRVFDELVDNTRTGDFDNLRKLMDPHARLVINGRNFIGREEVIRVMHEIRIETHRIRSIRIINGQARIDVESEVDINGRTEETRVEIIVFKVDGRWYLHTLRIV” gave a protease stability score of 1.99. Sequence “DETTELVHRLIELFLNSLHTGDEKTMVKLADPHARVEVRINGRKEEYHGMEHWSEHLIRRLEHLRIEIRIHDMQWFEGHAQVHTELIVRYDGKEMRTSVQVHLFIVNGRFKSSIVIIH” has a protease stability score of 1.05. “DEERQRAHKWMHDWIKAYLTGDEEHQNQMLDPNMRIEYGDKTHHGRDILIEIFREELRQVDHIEIRIRHIDNFEGRVRTDGELHVKINGRREHYDIILEYDVVNGKLKIERWDIR” gave a protease stability score of 1.45. Work on “TEEDRLVDKITKELLTALTTGDEEIFLELLDPNARVEYNGKEMHGREFYRKIFEEEEKKIKNLRVEIHDYDAQGDKIHVDQRRHFNGRTYDYRLHYLVVNGKVKSVFVRIL” yielded a protease stability score of 0.831. Sequence “DEEQELLLRIFERWLEFLLTGDEDTMHRLFDPDVKSRIGDFNHHGRELVLEAHQWFLKHARLKEFIRRDIHAINGRINMKGDVRVDVNGQEWEDHIRIHLVVVNGKMREIHIEEK” has a protease stability score of 1.38. For “DEDEQMKESLLKIYRQSMHTGDEESHERLADPNVRVDWDGVRYHGRHILAIILHELGADHMDLKIKDSRLVNGRIHMTVIEIIDIGDKKHKIETHLIADKFDGRWHLRTLEIR”, the protease stability score was 0.785. Work on “DEEKKKFEHWVKLVIHALLTGDEKHLNDMADPNVKVRSVFNGRHVELHGRENEHRWLEKLRKRLGVDHIEITDSVIQGDKVEIDSRYIQGDKEFKSSIHIVVVNGRTHENEFIFH” yielded a protease stability score of 1.1.

Reference: the NTF2 design screens of Basanta et al. (2020)
